# Measured values published in patent publication US11702469B2, “Recombinant EGFL7, EGFL7 antibodies, and uses thereof” (Ohio State Innovation Foundation, priority 2017, dated 2023).
# Assays:
# THP-1 cells [1] = test: Differentiation (CD11B and CD14 staining), THP-1; assay type: cell-based, human; conditions: 96-hours post anti-EGFL7 treatment
# Protocol: (§1) FIG. 24A-24G. EGFL7 prevents activation of NOTCH signaling in AML cells. (FIG. 24A) Overview of experiments using DLL4-FC and IgG-FC control coated plates to induce NOTCH activation. (FIG. 24B) THP-1 cells were pre-treated with 10 μM γ-secretase inhibitor (AVA), 100 μg/ml anti-EGFL7 antibody or 0.25 μM rEGFL7 for 30 min, then transferred to IgG-Fc or DLL4-Fc coated plates. After 4 h of incubation total RNA from THP-1 cells was extracted for qRT-PCR analysis of HES1 with β-ACTIN as internal control. ^###P<0.001 DLL4-FC vs IgG-FC; ***P<0.001 DLL4+AVA, DLL4+rEGFL7, and DLL4+anti-EGFL7 vs DLL4-FC. […] THP-1 cells were treated with the indicated concentration of anti-EGFL7 (@E7) then assessed for apoptosis using (FIG. 24D) AnnexinV+ staining and FACS; *P<0.05 (FIG. 24E) Immuno-blotting for PARP1 and Casp3 cleavage. (FIG. 24F) Cell differentiation was assessed by CD11B and CD14 staining 96-hours post anti-EGFL7 treatments; *P<0.05. (FIG. 24G) To determine whether activation of NOTCH by DLL4-Fc could be accentuated by anti-EGFL7 treatment, THP-1 cells were first treated with anti-EGFL7 (100 μg/ml) and then cultured on DLL4-FC or IgG-Fc coated plates and then assessed for apoptosis using AnnexinV+ staining and FACS. *P<0.05 DLL4-Fc and anti-EGFL7; vs DLL4-FC+anti-EGFL7. […]
# [2] = system: non-small cell lung cancer; conditions: mouse, in vivo; cited from earlier work
# AML cell lines = test: Differentiation (CD11b expression) in AML cell lines; assay type: cell-based, human; conditions: vs IgG-treated controls
# Protocol: FIG. 10. Induced differentiation in AML cell lines treated with anti-EGFL7. Differentiation analysis was evaluated by CD11b expression. CD11b is depicted as the ratio of the CD11b expression value in the @E7 treated samples to CD11b expression value of the IgG-treated controls. * indicates P<0.05, ** indicates P<0.01.
# For the evaluation of apoptosis, cells were stained with Annexin V and 7-AAD as previously described^16, 21 For the evaluation of cell proliferation, AML cell lines were incubated with BrdU, fixed, permeabilized and stained with APC-conjugated anti-BrdU antibody, according to the instructions of the manufacturer (BD Biosciences) and as previously described^16, 21 The proliferating fraction of the cells (i.e., the BrdU positive cells) was evaluated with flow cytometry (LSRII, BD Biosciences). For cell differentiation analysis, cells were stained with an anti-CD11B antibody (BD Biosciences) and analyzed by flow cytometry.
# CD34+CB cells = test: CFU assay, CD34+ cord blood cells; assay type: cell-based; conditions: treated in vitro, vs IgG1 control
# Protocol: FIG. 12. Recombinant EGFL7 stimulation leads to expansion of primary CFUs and secondary CFUs in human hematopoietic stem and progenitor cells (HSPCs). […] The number of colonies with more than 50 cells was counted under a light microscope. Right: Cells from the first round of CFU assays were harvested, rinsed with SFEM, and pooled. 5000 cells were then mixed with methylcellulose medium in the absence or presence of 0.25 μM recombinant human EGFL7 and plated onto 2 cm dishes for 10 days. The number of colonies with more than 50 cells was counted under a light microscope. […]
# […] After 10 days of culture, colonies were scored.
# To assess the toxicity of Parsatuzumab on normal hematopoiesis, wild type (C57Bl/6J) mice were treated with Parsatuzumab (n=4) and IgG1 control (n=4) with the highest dose previously tested at 50 mpk twice a week for two weeks. Parsatuzumab targets both human and mouse EGFL7 protein. After two weeks of treatment, blood, spleen and BM were harvested and full phenotypic characterization was performed to assess toxicity. […] Full immunophenotypic examination of BM populations was also performed (data not shown due to space constraints). […] To functionally test the effect of Parsatuzumab on normal HSPCs, competitive repopulation BM transplantation (BMT) assays and CFU assays were performed. […]
# THP-1 cells [3] = test: Apoptosis (AnnexinV+ FACS), THP-1; assay type: cell-based, human; conditions: anti-EGFL7 treatment
# Protocol: as §1
molecule,measurement,setting,value
"Parsatuzumab: Anti-human EGFL7 therapeutic antibody (Parsatuzumab) obtained from Creative Biolabs; blocking monoclonal antibody (antibody, chains of the INN, looked up, V domains shown) VH: EVQLVESGGGLVQPGGSLRLSCAASGYTFIDYYMNWVRQAPGKGLEWVGDINLDNSGTHYNQKFKGRFTISRDKSKNTAYLQMNSLRAEDTAVYYCAREGVYHDYDDYAMDYWGQGTLVTVSS VL: DIQMTQSPSSLSASVGDRVTITCRTSQSLVHINAITYLHWYQQKPGKAPKLLIYRVSNRFSGVPSRFSGSGSGTDFTLTISSLQPEDFATYYCGQSTHVPLTFGQGTKVEIK",CD11B and CD14 expression,THP-1 cells [1],increases were found in both these markers
same,overall survival,[2],increased overall survival
same,tumor size,[2],decreased tumor size
same,differentiation (CD11b expression),AML cell lines,increased differentiation
same,"numbers and types of colonies, CB CD34+ cells",CD34+CB cells,no significant changes in the numbers or types of colonies
same,AnnexinV+ apoptotic cells,THP-1 cells [3],increase in AnnexinV+
